According to patent CN115611981A (GENOR BIOPHARMA CO LTD, dated 2023):

Biological target: T1, PD-1 (UniProt Q15116 25-288, limits assumed)
T1 construct: whole, on cells; also called Jurkat/PD-1细胞表面的PD-1; Jurkat/PD1
Test: Jurkat/PD-1 + CHO/PD-L1 NFAT-luciferase reporter blockade assay (binding inferred)

T1 sequence (Q15116 25-288 limits assumed): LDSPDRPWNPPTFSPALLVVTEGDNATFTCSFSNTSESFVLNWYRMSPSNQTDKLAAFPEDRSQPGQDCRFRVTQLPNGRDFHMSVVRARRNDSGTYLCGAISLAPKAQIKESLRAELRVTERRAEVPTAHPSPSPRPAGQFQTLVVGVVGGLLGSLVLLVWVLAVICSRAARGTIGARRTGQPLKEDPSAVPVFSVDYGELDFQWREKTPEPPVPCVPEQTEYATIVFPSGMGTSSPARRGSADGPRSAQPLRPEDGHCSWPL

- binding result: binds
B1: G-Ab1 (antibody, human IgG4 S228P, kappa, V domains shown)
VH: QIQLVQSGSELKKPGASVKVSCKASGYTFTNFGMNWVRQAPGQGLKWMGWISGYTREPTYAADFKGRFVISLDTSVSTAYLQISSLKAEDTAVYYCARDVFDYWGQGTLVTVSS
VL: DIVLTQSPASLAVSPGQRATITCRASESVDNYGYSFMNWFQQKPGQPPKLLIYRASNLESGVPARFSGSGSRTDFTLTINPVEADDTANYYCQQSNADPTFGQGTKLEIKR
notes: The control used was an IgG4 isotype control; also called 抗PD-1抗体; G-Ab1抗体
